The values below come from PMC6748103, “SPOP suppresses prostate cancer through regulation of CYCLIN E1 stability” (Cell Death and Differentiation, 2018).

The target in this test is T1, GST-CCNE1 (UniProt P24864 1-410).
T1 construct: CYCLIN E1 (CCNE1), expressed in bacteria; also called GST-tagged CCEN1; GST-tagged CYCLIN E1
Description: pull-down; GST pull-down; His-SPOP and GST-CCNE1 expressed in bacteria and affinity purified. Particulars: both partners purified.

T1 sequence (P24864 whole entry): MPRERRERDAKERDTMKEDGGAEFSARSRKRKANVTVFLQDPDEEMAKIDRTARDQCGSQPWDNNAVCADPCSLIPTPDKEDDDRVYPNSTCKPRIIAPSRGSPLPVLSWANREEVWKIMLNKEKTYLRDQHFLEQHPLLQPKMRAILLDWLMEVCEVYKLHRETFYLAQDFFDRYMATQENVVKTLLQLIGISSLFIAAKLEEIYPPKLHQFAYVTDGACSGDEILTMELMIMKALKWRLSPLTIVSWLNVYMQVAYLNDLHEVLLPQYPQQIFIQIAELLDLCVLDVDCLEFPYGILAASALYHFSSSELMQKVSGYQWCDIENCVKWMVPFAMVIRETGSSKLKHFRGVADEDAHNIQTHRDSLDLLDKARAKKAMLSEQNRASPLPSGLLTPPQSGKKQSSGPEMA

B1: His-tagged SPOP (natural protein, UniProt O43791 1-374, looked up)
chain: MSRVPSPPPPAEMSSGPVAESWCYTQIKVVKFSYMWTINNFSFCREEMGEVIKSSTFSSGANDKLKWCLRVNPKGLDEESKDYLSLYLLLVSCPKSEVRAKFKFSILNAKGEETKAMESQRAYRFVQGKDWGFKKFIRRDFLLDEANGLLPDDKLTLFCEVSVVQDSVNISGQNTMNMVKVPECRLADELGGLWENSRFTDCCLCVAGQEFQAHKAILAARSPVFSAMFEHEMEESKKNRVEINDVEPEVFKEMMCFIYTGKAPNLDKMADDLLAAADKYALERLKVMCEDALCSNLSVENAAEILILADLHSADQLKTQAVDFINYHASDVLETSGWKSMVVSHPHLVAEAYRSLASAQCPFLGPPRKRLKQS
notes: SPOP, expressed in bacteria; also called His-SPOP
For the molecule B1, the binding result was “binds”.
